Data: PMC10315472

How the values were obtained:
AMSIN (actinomyces) = experiment: SPR
[1] = biological target: emorisin (Emergomyces orientalis); experiment: SPR

Substance | Kd (AMSIN (actinomyces)) [nM] | koff (AMSIN (actinomyces)) [s⁻¹] | kon (AMSIN (actinomyces)) [M⁻¹ s⁻¹] | Kd [1] [nM] | koff [1] [s⁻¹] | kon [1] [M⁻¹ s⁻¹]
γRBD (from UniProt P0DTC2 319-541) (domain or fragment) | 607 | 0.00545 | 8970 |  |  | 
Spike protein of the SARS-CoV-2 Omicron variant (from UniProt P0DTC2) (natural protein) | 57.9 |  |  |  |  | 
ζRBD (from UniProt P0DTC2) (domain or fragment) | 1450 |  |  |  |  | 
αRBD (from UniProt P0DTC2) (domain or fragment) | 37.4 |  |  |  |  | 
βRBD (from UniProt P0DTC2 319-541) (domain or fragment) | 310 | 0.00536 | 17300 | 49.5 | 0.00561 | 11400
δRBD (from UniProt P0DTC2 319-541) (domain or fragment) | 76.6 | 0.0038 | 49600 | 31.6 | 0.00202 | 64000
